In PMC9352680, “A comprehensive thermodynamic model for RNA binding by the Saccharomyces cerevisiae Pumilio protein PUF4”:

Target: T1, PUF4 RNA-binding domain (Saccharomyces cerevisiae, UniProt P25339 537-888)
T1 sequence: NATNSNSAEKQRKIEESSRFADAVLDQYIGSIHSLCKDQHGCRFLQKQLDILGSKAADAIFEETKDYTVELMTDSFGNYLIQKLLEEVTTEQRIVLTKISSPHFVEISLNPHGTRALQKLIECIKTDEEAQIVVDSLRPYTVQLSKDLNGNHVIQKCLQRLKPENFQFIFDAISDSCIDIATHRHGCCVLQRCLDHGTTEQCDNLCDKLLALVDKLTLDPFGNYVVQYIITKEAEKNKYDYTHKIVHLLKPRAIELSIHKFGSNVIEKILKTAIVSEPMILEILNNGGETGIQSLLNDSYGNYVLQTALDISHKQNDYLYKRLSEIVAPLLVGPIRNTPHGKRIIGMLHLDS
Assay: Mg; RNA-MaP; 20 mM Na-HEPES pH 7.4, 30 mM KOAc, 0.75 mM MgCl2, 0.1% Tween-20, 5% glycerol, 0.1 mg/mL BSA, 2 mM DTT; 25 C; 0.0125-409.6 nM protein
Settings: tags: N-His6-TEV cleaved; C-SNAP kept, Cy3B-labelled; label: tethered on chip by stalled RNA polymerase

| Binder | Kd |
| --- | --- |
| Ic_S4_P4E.1_K4.1_C4.1_H4.1_A4.1_[T5G]_[A6C]_[T7A]_F4.1_[T8C]_T4.1 (ssRNA) RNA: UUUGACAACUGAUCGUUCUUUCUUGUAGCACAUUCUUUCUCGAUCAGUUGUCUUU | 772 nM |
| Ic_S4_P4E.1_K4.1_C4.1_H4.1_A4.1_[T5G]_[A6C]_[T7A]_F4.1_[T8A]_[A9C]_T4.1 (ssRNA) RNA: UUUGACAACUGAUCGUUCUUUCUUGUAGCAACUUCUUUCUCGAUCAGUUGUCUUU | 1350 nM |
| Ic_S4_P4E.1_K4.1_C4.1_H4.1_A4.1_[T5G]_[A6C]_[T7A]_F4.1_[A9G]_T4.1 (ssRNA) RNA: UUUGACAACUGAUCGUUCUUUCUUGUAGCAUGUUCUUUCUCGAUCAGUUGUCUUU | 51.3 nM |
| Ic_S4_P4E.1_K4.1_C4.1_H4.1_A4.1_[T5G]_[A6C]_[T7A]_F4.1_[A9C]_T4.1 (ssRNA) RNA: UUUGACAACUGAUCGUUCUUUCUUGUAGCAUCUUCUUUCUCGAUCAGUUGUCUUU | 61.1 nM |
| Ic_S4_P4E.1_K4.1_C4.1_H4.1_A4.1_[T5G]_[A6C]_F4.1_[T8G]_[A9T]_T4.1 (ssRNA) RNA: UUUGACAACUGAUCGUUCUUUCUUGUAGCUGUUUCUUUCUCGAUCAGUUGUCUUU | 117 nM |
| Ic_S4_P4E.1_K4.1_C4.1_H4.1_A4.1_[T5G]_[A6C]_F4.1_[T8C]_T4.1 (ssRNA) RNA: UUUGACAACUGAUCGUUCUUUCUUGUAGCUCAUUCUUUCUCGAUCAGUUGUCUUU | 365 nM |
| Ic_S4_P4E.1_K4.1_C4.1_H4.1_A4.1_[T5G]_[A6C]_F4.1_[A9T]_T4.1 (ssRNA) RNA: UUUGACAACUGAUCGUUCUUUCUUGUAGCUUUUUCUUUCUCGAUCAGUUGUCUUU | 40.5 nM |
| UCUCUUUGUUUAUUCUCUCUU (ssRNA) [Ib_S1_P4E.1_K4.1_C4.1_H4.1_[A4T]_A4.1_F4.1_[A9C]_T4.1] | 804 nM |
| Ic_S4_P4E.1_K4.1_C4.1_H4.1_A4.1_[T5G]_[A6T]_[T7G]_F4.1_[T8C]_[A9C]_T4.1 (ssRNA) RNA: UUUGACAACUGAUCGUUCUUUCUUGUAGUGCCUUCUUUCUCGAUCAGUUGUCUUU | 1240 nM |
| Ic_S4_P4E.1_K4.1_C4.1_H4.1_A4.1_[T5G]_[A6T]_[T7G]_F4.1_[T8C]_[A9T]_T4.1 (ssRNA) RNA: UUUGACAACUGAUCGUUCUUUCUUGUAGUGCUUUCUUUCUCGAUCAGUUGUCUUU | 467 nM |
| Ic_S4_P4E.1_K4.1_C4.1_H4.1_A4.1_[T5G]_[A6T]_[T7G]_F4.1_[A9C]_T4.1 (ssRNA) RNA: UUUGACAACUGAUCGUUCUUUCUUGUAGUGUCUUCUUUCUCGAUCAGUUGUCUUU | 238 nM |
| Ic_S4_P4E.1_K4.1_C4.1_H4.1_A4.1_[T5G]_[A6T]_[T7G]_F4.1_T4.1 (ssRNA) RNA: UUUGACAACUGAUCGUUCUUUCUUGUAGUGUAUUCUUUCUCGAUCAGUUGUCUUU | 12.1 nM |
| Ic_S4_P4E.1_K4.1_C4.1_H4.1_A4.1_[T5G]_[A6T]_[T7C]_F4.1_[T8G]_[A9T]_T4.1 (ssRNA) RNA: UUUGACAACUGAUCGUUCUUUCUUGUAGUCGUUUCUUUCUCGAUCAGUUGUCUUU | 616 nM |
| Ic_S4_P4E.1_K4.1_C4.1_H4.1_A4.1_[T5G]_[A6T]_[T7C]_F4.1_[T8C]_[A9G]_T4.1 (ssRNA) RNA: UUUGACAACUGAUCGUUCUUUCUUGUAGUCCGUUCUUUCUCGAUCAGUUGUCUUU | 701 nM |
| Ic_S4_P4E.1_K4.1_C4.1_H4.1_A4.1_[T5G]_[A6T]_[T7C]_F4.1_[T8C]_[A9C]_T4.1 (ssRNA) RNA: UUUGACAACUGAUCGUUCUUUCUUGUAGUCCCUUCUUUCUCGAUCAGUUGUCUUU | 514 nM |
| Ic_S4_P4E.1_K4.1_C4.1_H4.1_A4.1_[T5G]_[A6T]_[T7C]_F4.1_[T8C]_[A9T]_T4.1 (ssRNA) RNA: UUUGACAACUGAUCGUUCUUUCUUGUAGUCCUUUCUUUCUCGAUCAGUUGUCUUU | 194 nM |
| Ic_S4_P4E.1_K4.1_C4.1_H4.1_A4.1_[T5G]_[A6T]_[T7C]_F4.1_[T8C]_T4.1 (ssRNA) RNA: UUUGACAACUGAUCGUUCUUUCUUGUAGUCCAUUCUUUCUCGAUCAGUUGUCUUU | 445 nM |
| Ic_S4_P4E.1_K4.1_C4.1_H4.1_A4.1_[T5G]_[A6T]_[T7C]_F4.1_[A9G]_T4.1 (ssRNA) RNA: UUUGACAACUGAUCGUUCUUUCUUGUAGUCUGUUCUUUCUCGAUCAGUUGUCUUU | 166 nM |
| UCUCUUUGUGUAUUUUCUCUU (ssRNA) [Ib_S1_P4E.1_K4.1_C4.1_H4.1_[A4G]_A4.1_F4.1_[A9T]_T4.1] | 33.2 nM |
| Ic_S4_P4E.1_K4.1_C4.1_H4.1_A4.1_[T5G]_[A6T]_[T7C]_F4.1_[A9C]_T4.1 (ssRNA) RNA: UUUGACAACUGAUCGUUCUUUCUUGUAGUCUCUUCUUUCUCGAUCAGUUGUCUUU | 155 nM |
| Ic_S4_P4E.1_K4.1_C4.1_H4.1_A4.1_[T5G]_[A6T]_[T7A]_F4.1_[T8G]_[A9T]_T4.1 (ssRNA) RNA: UUUGACAACUGAUCGUUCUUUCUUGUAGUAGUUUCUUUCUCGAUCAGUUGUCUUU | 649 nM |
| Ic_S4_P4E.1_K4.1_C4.1_H4.1_A4.1_[T5G]_[A6T]_[T7A]_F4.1_[T8C]_[A9G]_T4.1 (ssRNA) RNA: UUUGACAACUGAUCGUUCUUUCUUGUAGUACGUUCUUUCUCGAUCAGUUGUCUUU | 688 nM |
| Ic_S4_P4E.1_K4.1_C4.1_H4.1_A4.1_[T5G]_[A6T]_[T7A]_F4.1_[T8C]_[A9T]_T4.1 (ssRNA) RNA: UUUGACAACUGAUCGUUCUUUCUUGUAGUACUUUCUUUCUCGAUCAGUUGUCUUU | 285 nM |
| Ic_S4_P4E.1_K4.1_C4.1_H4.1_A4.1_[T5G]_[A6T]_[T7A]_F4.1_[T8A]_[A9C]_T4.1 (ssRNA) RNA: UUUGACAACUGAUCGUUCUUUCUUGUAGUAACUUCUUUCUCGAUCAGUUGUCUUU | 977 nM |
